Data: the supplement of paper PMC10065799, “High-throughput profiling of sequence recognition by tyrosine kinases and SH2 domains using bacterial peptide display” (eLife, 2023)

Legend:
AncSZ = assay: phosphorylation enrichment, bacterial display (enrichment ratio); higher = better substrate or ligand; peptides without Tyr show the background
EPHB1 = EPHB1 (UniProt P54762); assay: as above
EPHB2 = EPHB2 (UniProt P29323); assay: as above
FGFR1 = FGFR1 (UniProt P11362); assay: as above
FGFR3 = FGFR3 (UniProt P22607); assay: as above
FGFR3, sequence (P22607 whole entry, looked up): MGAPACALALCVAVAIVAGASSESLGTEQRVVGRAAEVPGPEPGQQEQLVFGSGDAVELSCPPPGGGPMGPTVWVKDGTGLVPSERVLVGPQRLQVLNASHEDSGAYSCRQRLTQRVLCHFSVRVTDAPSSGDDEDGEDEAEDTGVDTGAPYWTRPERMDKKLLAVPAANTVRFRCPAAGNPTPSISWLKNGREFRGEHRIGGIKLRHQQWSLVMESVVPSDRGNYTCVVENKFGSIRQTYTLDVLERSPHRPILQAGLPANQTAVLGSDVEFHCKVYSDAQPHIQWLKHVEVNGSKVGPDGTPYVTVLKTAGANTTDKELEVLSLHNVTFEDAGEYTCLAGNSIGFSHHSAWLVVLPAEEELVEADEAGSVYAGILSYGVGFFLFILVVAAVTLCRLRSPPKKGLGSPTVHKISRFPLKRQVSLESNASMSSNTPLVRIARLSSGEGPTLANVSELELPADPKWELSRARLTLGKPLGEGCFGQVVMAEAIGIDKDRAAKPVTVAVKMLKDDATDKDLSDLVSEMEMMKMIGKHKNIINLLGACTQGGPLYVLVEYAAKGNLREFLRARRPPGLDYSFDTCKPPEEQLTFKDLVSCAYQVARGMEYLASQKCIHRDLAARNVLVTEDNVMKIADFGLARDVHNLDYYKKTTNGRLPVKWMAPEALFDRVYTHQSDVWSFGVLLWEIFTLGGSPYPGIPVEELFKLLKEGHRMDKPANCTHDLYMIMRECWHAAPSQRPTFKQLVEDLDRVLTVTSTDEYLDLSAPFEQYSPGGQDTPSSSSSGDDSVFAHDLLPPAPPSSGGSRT

Fer (mouse) = assay: as above
Fes = Fes (UniProt P07332); assay: as above
Fes, sequence (P07332 whole entry, looked up): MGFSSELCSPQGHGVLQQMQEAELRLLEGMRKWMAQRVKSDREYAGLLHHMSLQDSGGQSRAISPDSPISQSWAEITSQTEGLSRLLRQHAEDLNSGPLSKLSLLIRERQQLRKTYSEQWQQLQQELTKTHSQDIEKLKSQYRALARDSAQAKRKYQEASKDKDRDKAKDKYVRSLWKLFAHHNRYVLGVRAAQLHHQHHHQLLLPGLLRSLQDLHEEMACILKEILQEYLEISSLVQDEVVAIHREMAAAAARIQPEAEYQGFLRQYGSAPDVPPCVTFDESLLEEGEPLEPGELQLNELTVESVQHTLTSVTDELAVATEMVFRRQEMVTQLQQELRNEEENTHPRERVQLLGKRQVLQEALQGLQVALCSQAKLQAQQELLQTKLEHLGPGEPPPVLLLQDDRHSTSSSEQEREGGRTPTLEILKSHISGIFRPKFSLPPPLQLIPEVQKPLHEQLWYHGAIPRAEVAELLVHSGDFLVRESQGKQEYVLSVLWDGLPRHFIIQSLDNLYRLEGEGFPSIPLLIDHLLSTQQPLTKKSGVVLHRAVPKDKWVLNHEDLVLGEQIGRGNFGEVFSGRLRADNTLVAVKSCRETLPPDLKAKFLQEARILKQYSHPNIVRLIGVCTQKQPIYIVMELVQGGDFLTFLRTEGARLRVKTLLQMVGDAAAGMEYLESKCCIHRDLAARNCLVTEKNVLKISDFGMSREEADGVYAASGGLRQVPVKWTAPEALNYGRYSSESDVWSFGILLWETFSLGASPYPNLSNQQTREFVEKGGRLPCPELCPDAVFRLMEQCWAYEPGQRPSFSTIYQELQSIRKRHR

Fyn = Fyn (UniProt P06241); assay: as above
Fyn, sequence (P06241 whole entry, looked up): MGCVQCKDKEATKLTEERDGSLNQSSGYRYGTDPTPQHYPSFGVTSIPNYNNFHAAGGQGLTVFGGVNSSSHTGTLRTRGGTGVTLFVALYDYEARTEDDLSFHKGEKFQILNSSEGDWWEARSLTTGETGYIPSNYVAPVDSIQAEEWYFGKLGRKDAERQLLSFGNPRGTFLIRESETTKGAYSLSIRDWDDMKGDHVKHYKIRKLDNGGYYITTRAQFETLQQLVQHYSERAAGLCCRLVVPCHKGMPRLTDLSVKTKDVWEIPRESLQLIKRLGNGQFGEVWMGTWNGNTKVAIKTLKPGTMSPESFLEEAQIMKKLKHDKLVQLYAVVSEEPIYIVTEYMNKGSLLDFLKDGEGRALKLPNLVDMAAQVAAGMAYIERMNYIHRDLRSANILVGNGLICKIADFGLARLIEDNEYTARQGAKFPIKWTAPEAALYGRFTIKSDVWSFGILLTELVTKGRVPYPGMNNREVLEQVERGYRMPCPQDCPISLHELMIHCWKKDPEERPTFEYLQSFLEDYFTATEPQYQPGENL

Hck = Hck (UniProt P08631); assay: as above
Hck, sequence (P08631 whole entry, looked up): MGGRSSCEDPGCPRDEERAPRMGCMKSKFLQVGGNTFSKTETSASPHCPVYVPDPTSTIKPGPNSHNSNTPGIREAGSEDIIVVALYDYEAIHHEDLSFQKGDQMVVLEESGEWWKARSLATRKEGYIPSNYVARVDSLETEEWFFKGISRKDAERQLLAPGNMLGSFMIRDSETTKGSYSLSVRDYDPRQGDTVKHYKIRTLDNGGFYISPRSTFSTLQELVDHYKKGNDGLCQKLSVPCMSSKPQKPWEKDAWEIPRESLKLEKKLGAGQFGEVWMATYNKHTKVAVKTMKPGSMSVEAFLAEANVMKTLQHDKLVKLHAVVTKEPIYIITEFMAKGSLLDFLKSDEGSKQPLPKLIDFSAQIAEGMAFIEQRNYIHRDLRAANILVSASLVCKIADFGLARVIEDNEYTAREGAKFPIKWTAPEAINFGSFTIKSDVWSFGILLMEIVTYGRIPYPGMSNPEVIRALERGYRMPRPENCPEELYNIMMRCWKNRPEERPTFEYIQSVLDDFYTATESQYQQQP

Jak2 = Jak2 (UniProt O60674); assay: as above
Jak2, sequence (O60674 whole entry, looked up): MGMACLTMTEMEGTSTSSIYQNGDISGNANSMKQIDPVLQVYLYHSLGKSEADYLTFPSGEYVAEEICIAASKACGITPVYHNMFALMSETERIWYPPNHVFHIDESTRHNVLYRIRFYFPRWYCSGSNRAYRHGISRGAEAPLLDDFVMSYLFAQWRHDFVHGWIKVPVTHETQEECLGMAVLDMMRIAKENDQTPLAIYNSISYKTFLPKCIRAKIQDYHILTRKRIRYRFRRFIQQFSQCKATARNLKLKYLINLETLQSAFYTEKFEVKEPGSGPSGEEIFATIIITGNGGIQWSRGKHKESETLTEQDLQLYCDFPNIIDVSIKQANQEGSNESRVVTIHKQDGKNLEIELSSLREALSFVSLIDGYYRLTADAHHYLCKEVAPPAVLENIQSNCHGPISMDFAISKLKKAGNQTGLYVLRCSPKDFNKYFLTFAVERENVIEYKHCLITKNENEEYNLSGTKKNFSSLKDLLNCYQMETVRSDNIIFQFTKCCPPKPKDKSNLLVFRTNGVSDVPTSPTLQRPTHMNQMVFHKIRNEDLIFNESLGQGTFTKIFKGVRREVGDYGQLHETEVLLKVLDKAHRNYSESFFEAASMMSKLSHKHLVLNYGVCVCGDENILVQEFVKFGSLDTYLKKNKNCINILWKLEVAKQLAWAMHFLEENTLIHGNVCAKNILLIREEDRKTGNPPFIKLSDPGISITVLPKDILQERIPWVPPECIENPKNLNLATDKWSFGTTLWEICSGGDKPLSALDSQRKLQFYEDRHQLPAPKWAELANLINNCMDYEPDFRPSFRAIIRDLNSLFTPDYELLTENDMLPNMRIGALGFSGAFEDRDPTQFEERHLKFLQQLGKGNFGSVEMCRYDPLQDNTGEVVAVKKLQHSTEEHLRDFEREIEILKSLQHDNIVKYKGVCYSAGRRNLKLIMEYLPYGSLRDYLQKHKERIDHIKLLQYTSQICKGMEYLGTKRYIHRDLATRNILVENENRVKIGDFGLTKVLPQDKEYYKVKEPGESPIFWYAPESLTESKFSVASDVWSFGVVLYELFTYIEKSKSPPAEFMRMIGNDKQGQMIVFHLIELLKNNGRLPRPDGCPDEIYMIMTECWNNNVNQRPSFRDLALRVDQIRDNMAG

MERTK = MERTK (UniProt Q12866); assay: as above
c-Abl (mouse) = assay: as above
c-Src = assay: as above
Grb2 SH2 = Grb2 SH2 (UniProt P62993); assay: SH2 binding enrichment of the phosphorylated peptide, bacterial display (enrichment ratio); higher = better substrate or ligand; peptides without Tyr show the background
Grb2 SH2, sequence (P62993 whole entry, looked up): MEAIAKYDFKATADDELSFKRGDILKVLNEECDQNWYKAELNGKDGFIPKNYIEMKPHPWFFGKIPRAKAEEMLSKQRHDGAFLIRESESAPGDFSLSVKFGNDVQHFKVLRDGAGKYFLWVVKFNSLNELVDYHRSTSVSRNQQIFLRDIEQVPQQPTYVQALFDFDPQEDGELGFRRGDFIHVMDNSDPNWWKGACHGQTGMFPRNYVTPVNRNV

SHP2-C SH2 = assay: as above
c-Src SH2 = assay: as above
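Throughout, for SH2 binding enrichment of the phosphorylated peptide, bacterial display: peptide library displayed on the E. coli surface as eCPX fusions, selected cells deep-sequenced, score is each peptide's frequency after selection divided by its frequency in the input.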
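Throughout, for phosphorylation enrichment, bacterial display: 11-residue human phosphosite peptides and single-mutation variants displayed on the E. coli surface, counted by deep sequencing, each peptide's frequency after selection divided by its frequency in the unselected input library; frequency after pTyr selection over input frequency; kinase dosed for 20-30% of maximal phosphorylation in three min.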

FGFR1, sequence (P11362 whole entry, looked up): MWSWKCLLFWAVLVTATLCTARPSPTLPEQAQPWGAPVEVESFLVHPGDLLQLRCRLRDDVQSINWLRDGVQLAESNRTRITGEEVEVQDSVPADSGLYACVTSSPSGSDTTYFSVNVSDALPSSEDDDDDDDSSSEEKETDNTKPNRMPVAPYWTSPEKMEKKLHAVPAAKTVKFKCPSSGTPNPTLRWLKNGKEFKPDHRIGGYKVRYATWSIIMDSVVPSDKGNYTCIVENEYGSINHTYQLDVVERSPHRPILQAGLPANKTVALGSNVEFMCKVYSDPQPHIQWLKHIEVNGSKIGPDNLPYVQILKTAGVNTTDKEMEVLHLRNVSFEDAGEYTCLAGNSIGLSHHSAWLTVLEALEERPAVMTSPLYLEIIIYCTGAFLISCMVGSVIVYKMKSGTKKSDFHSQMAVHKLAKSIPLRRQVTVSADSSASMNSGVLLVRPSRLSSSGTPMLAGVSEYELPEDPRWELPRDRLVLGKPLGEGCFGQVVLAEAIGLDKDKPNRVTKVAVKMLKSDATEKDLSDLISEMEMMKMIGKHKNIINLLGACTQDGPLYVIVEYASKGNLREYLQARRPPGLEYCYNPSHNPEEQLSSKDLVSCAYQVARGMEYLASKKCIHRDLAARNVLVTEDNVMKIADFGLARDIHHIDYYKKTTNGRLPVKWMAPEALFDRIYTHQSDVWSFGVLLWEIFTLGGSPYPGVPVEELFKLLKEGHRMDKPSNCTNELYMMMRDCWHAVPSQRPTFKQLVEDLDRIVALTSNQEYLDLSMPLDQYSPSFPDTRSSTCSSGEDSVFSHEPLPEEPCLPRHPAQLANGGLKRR

| Sequence | phosphorylation enrichment (AncSZ) | phosphorylation enrichment (EPHB1) | phosphorylation enrichment (EPHB2) | phosphorylation enrichment (FGFR1) | phosphorylation enrichment (FGFR3) | phosphorylation enrichment (Fer (mouse)) | phosphorylation enrichment (Fes) | phosphorylation enrichment (Fyn) | phosphorylation enrichment (Hck) | phosphorylation enrichment (Jak2) | phosphorylation enrichment (MERTK) | phosphorylation enrichment (c-Abl (mouse)) | phosphorylation enrichment (c-Src) | SH2 binding enrichment (Grb2 SH2) | SH2 binding enrichment (SHP2-C SH2) | SH2 binding enrichment (c-Src SH2) |
| --- | --- | --- | --- | --- | --- | --- | --- | --- | --- | --- | --- | --- | --- | --- | --- | --- |
| SLHPGYNFRYA [P2RX7_Y291_Y288H] | 0.657 | 0.351 | 0.497 | 0.431 | 0.545 | 0.442 | 0.949 | 0.424 | 0.492 | 0.925 | 0.622 | 0.637 | 0.454 | 1.09 | 1.93 | 0.556 |
| SLIDGYFRLTA [JAK2_Y372_YF] | 1.1 | 0.539 | 0.716 | 0.605 | 0.875 | 0.514 | 1.26 | 0.493 | 0.583 | 5.46 | 0.429 | 0.732 | 0.483 | 1.01 | 5.5 | 1.13 |
| SLNEEYAKNKT [MSH2_Y563_T564A] | 0.765 | 0.394 | 0.579 | 0.472 | 0.538 | 0.318 | 0.877 | 0.413 | 0.362 | 0.791 | 0.43 | 0.674 | 0.45 | 0.949 | 0.759 | 0.482 |
| SNKLTYGTVVF [ACOX1_Y275_M278V] | 0.777 | 0.524 | 0.725 | 0.466 | 0.617 | 1.01 | 0.845 | 8 | 3.09 | 0.685 | 0.416 | 0.613 | 5.78 | 0.92 | 4.29 | 0.597 |
| SNNYIYTTLGV [FAM83B_Y639_K640T] | 1.07 | 7.5 | 4.29 | 6.21 | 4.56 | 6.62 | 1.1 | 8.37 | 7.83 | 1.28 | 8.17 | 2.88 | 5.7 | 0.883 | 2.71 | 0.725 |
| SPYAVYLFFTF [RPGRIP1_Y826_R827L] | 0.928 | 0.47 | 0.487 | 0.446 | 0.87 | 0.628 | 1.08 | 0.617 | 0.569 | 0.783 | 0.533 | 0.797 | 0.748 | 1.07 | 0.71 | 0.542 |
| SPYAVYRFFTF [RPGRIP1_Y826] | 1.08 | 0.714 | 0.555 | 0.784 | 0.783 | 0.875 | 1.33 | 1.79 | 1.21 | 1.12 | 0.797 | 1.67 | 2.4 | 0.728 | 0.574 | 0.447 |
| SRGLAYPARPA [LEMD2_Y122] | 0.359 | 0.328 | 0.332 | 0.34 | 0.266 | 0.288 | 0.419 | 0.331 | 0.339 | 0.401 | 0.339 | 0.386 | 0.335 | 0.825 | 0.606 | 0.413 |
| SSAKTYSRMRL [NBEAL2_Y1835_E1833K] | 0.433 | 0.354 | 0.366 | 0.34 | 0.394 | 0.379 | 0.552 | 0.406 | 0.453 | 0.52 | 0.4 | 0.542 | 0.427 | 0.869 | 0.802 | 0.773 |
| SSDKVCAHQMV [MLH1_Y379_Y379C] | 0.587 | 0.379 | 0.443 | 0.397 | 0.536 | 0.356 | 0.606 | 0.388 | 0.4 | 0.563 | 0.859 | 0.587 | 0.361 | 0.984 | 0.705 | 0.714 |
| SSQTIYQRVEG [TFR2_Y23_V22I] | 0.756 | 1.5 | 1.41 | 0.562 | 0.602 | 1.24 | 0.716 | 0.771 | 2.71 | 0.525 | 2.74 | 0.814 | 1.6 | 0.812 | 0.898 | 1.39 |
| SSSNPYSTVTV [ACTN2_Y599_M604V] | 0.432 | 0.342 | 0.359 | 0.745 | 0.483 | 9.71 | 0.597 | 0.733 | 0.82 | 0.383 | 0.464 | 0.567 | 1.29 | 0.667 | 12.3 | 3.35 |
| SSVAGYACLAF [MVD_Y131_A128V_YF] | 0.903 | 0.562 | 0.537 | 0.516 | 0.792 | 0.511 | 1.21 | 0.478 | 0.556 | 0.961 | 0.631 | 0.949 | 0.519 | 0.834 | 10.7 | 1.76 |
| SSVKLYRVFCD [FGB_Y266_P265L_YF] | 0.945 | 0.579 | 0.668 | 0.487 | 0.749 | 0.469 | 1.12 | 0.468 | 0.514 | 0.935 | 0.41 | 0.648 | 0.47 | 0.665 | 0.633 | 0.395 |
| SSWKLYPRMLR [HAO1_Y50_R46S] | 0.773 | 0.457 | 0.463 | 0.44 | 0.472 | 0.454 | 0.871 | 0.404 | 0.433 | 0.635 | 0.432 | 0.539 | 0.366 | 0.904 | 0.803 | 0.516 |
| STEAIYRRFSK [SH3PXD2B_Y42_YF] | 0.431 | 0.334 | 0.293 | 0.493 | 0.408 | 0.402 | 0.486 | 0.506 | 0.379 | 0.353 | 0.372 | 1.2 | 0.45 | 0.812 | 0.553 | 0.472 |
| STGWSYAGVAV [KLHL3_Y577_R575W] | 0.929 | 0.515 | 0.454 | 0.484 | 0.549 | 0.616 | 0.776 | 0.416 | 0.581 | 0.69 | 0.352 | 0.463 | 0.462 | 0.718 | 0.965 | 0.529 |
| STLEVYSCHPP [IL21R_Y317] | 1.33 | 1.04 | 1.34 | 0.698 | 1.04 | 0.904 | 1.56 | 1.25 | 1.27 | 1.38 | 0.774 | 1.31 | 1.65 | 0.71 | 0.559 | 0.451 |
| SVESPYGSVTF [NDRG2_Y47_T45S] | 0.662 | 0.501 | 0.862 | 0.456 | 0.496 | 9.44 | 0.696 | 7.99 | 5.03 | 0.572 | 0.525 | 0.57 | 5.95 | 0.689 | 0.688 | 0.376 |
| SVMAEYGLFGA [VSX2_Y219_YF] | 0.737 | 0.477 | 0.596 | 0.488 | 0.553 | 0.424 | 0.774 | 7.22 | 2.94 | 0.679 | 0.475 | 0.594 | 6.17 | 0.86 | 0.719 | 0.471 |
| SVVMPYEPPEV [TP53_Y220_V218M] | 1.27 | 0.559 | 0.595 | 0.559 | 0.674 | 0.549 | 1.12 | 0.56 | 0.481 | 0.897 | 0.492 | 0.66 | 0.482 | 0.877 | 0.738 | 1.06 |
| SVVVPDEPPEV [TP53_Y220_Y220D] | 1.33 | 0.706 | 0.665 | 0.724 | 0.687 | 0.647 | 1.39 | 0.582 | 0.567 | 1.19 | 0.586 | 0.782 | 0.522 | 0.755 | 0.794 | 0.576 |
| SVVVPSEPPEV [TP53_Y220_Y220S] | 0.971 | 0.598 | 0.642 | 0.503 | 0.755 | 0.426 | 1.12 | 0.511 | 0.484 | 0.851 | 0.431 | 0.74 | 0.449 | 1.03 | 0.958 | 0.577 |
| SVVVPYAPPEV [TP53_Y220_E221A] | 0.756 | 0.508 | 0.499 | 0.589 | 0.595 | 0.474 | 0.814 | 0.422 | 0.43 | 0.719 | 0.423 | 0.73 | 0.427 | 0.766 | 0.602 | 0.463 |
| SVVVPYEPPEV [TP53_Y220] | 1.25 | 0.532 | 0.645 | 0.548 | 0.748 | 0.556 | 1.16 | 0.502 | 0.55 | 1 | 0.531 | 0.798 | 0.459 | 1.01 | 1.11 | 0.888 |
| SVVVPYEPSEV [TP53_Y220_P223S] | 1.21 | 0.632 | 0.515 | 0.52 | 0.846 | 0.685 | 1.23 | 0.554 | 0.6 | 1.02 | 0.503 | 0.619 | 0.509 | 0.837 | 0.645 | 0.506 |
| SVVVPYKPPEV [TP53_Y220_E221K] | 0.915 | 0.501 | 0.461 | 0.477 | 0.448 | 0.471 | 0.792 | 0.458 | 0.421 | 0.761 | 0.517 | 0.584 | 0.596 | 0.795 | 0.599 | 0.546 |
| SVVVRYEPPEV [TP53_Y220_P219R] | 0.892 | 0.445 | 0.503 | 0.409 | 0.517 | 0.466 | 0.902 | 0.371 | 0.42 | 0.705 | 0.425 | 0.747 | 0.386 | 0.967 | 0.775 | 0.882 |
| SWDKRYCEAGF [ITGA2B_Y197] | 0.892 | 0.867 | 0.692 | 0.506 | 0.561 | 0.531 | 1.28 | 0.509 | 0.648 | 0.888 | 0.455 | 0.687 | 0.426 | 1.07 | 0.569 | 0.812 |
